Measured values reported in the supplement of paper PMC9112550, “Optimization of the antimicrobial peptide Bac7 by deep mutational scanning” (BMC Biology, 2022).

tested on: Escherichia coli TOP10; test: shrunken log2 fold change of peptide-encoding DNA abundance (4.5 h post-induction vs induction); higher = less antimicrobial activity (less host growth inhibition); details: time post-induction: 4.5 h; library: site-saturation at positions 5, 18, 19, 20
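Also: peptides expressed intracellularly from a pBAD plasmid library in pooled LB shake-flask culture, induced with 0.3% L-arabinose, DNA abundance read by NGS, three biological replicates, DESeq2 with apeglm shrinkage.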

In order of rising “shrunken log2 fold change” value:
1. RRIRYRPPRLPRPRPRPYVQPRP  -1.25
2. RRIRFRPPRLPRPRPRPFVHPRP  -0.728
3. RRIRYRPPRLPRPRPRPYPAPRP  -0.641
4. RRIRPRPPRLPRPRPRPIHNPRP  -0.569
5. RRIRHRPPRLPRPRPRPKQDPRP  -0.557
6. RRIRIRPPRLPRPRPRPQQHPRP  -0.551
7. RRIRIRPPRLPRPRPRPTPYPRP  -0.44
8. RRIRRRPPRLPRPRPRPNNMPRP  -0.348
9. RRIRCRPPRLPRPRPRPWMEPRP  -0.344
10. RRIRERPPRLPRPRPRPWMLPRP  -0.234
11. RRIRIRPPRLPRPRPRPRMQPRP  -0.199
12. RRIRLRPPRLPRPRPRPMYVPRP  -0.199
13. RRIRERPPRLPRPRPRPLYQPRP  -0.176
14. RRIRERPPRLPRPRPRPADLPRP  -0.175
15. RRIRIRPPRLPRPRPRPPLMPRP  -0.16
16. RRIRRRPPRLPRPRPRPDDGPRP  -0.147
17. RRIRFRPPRLPRPRPRPMFMPRP  -0.14
18. RRIRNRPPRLPRPRPRPCKTPRP  -0.129
19. RRIRERPPRLPRPRPRPVLTPRP  -0.126
20. RRIRNRPPRLPRPRPRPVEHPRP  -0.123
21. RRIRDRPPRLPRPRPRPAMKPRP  -0.0728
22. RRIRCRPPRLPRPRPRPIRPPRP  -0.0704
23. RRIRHRPPRLPRPRPRPFQMPRP  -0.0675
24. RRIRQRPPRLPRPRPRPCPLPRP  -0.0641
25. RRIRTRPPRLPRPRPRPVGIPRP  -0.0568
26. RRIRRRPPRLPRPRPRPGTLPRP  -0.0513
27. RRIRLRPPRLPRPRPRPLTKPRP  -0.0425
28. RRIRMRPPRLPRPRPRPWWAPRP  -0.0423
29. RRIRIRPPRLPRPRPRPQGVPRP  -0.0375
30. RRIRGRPPRLPRPRPRPHGYPRP  -0.0362
31. RRIRDRPPRLPRPRPRPKTQPRP  -0.0316
32. RRIRVRPPRLPRPRPRPRYDPRP  -0.0252
33. RRIRYRPPRLPRPRPRPINRPRP  -0.018
34. RRIRHRPPRLPRPRPRPCAVPRP  -0.0171
35. RRIRTRPPRLPRPRPRPHIDPRP  -0.0151
36. RRIRDRPPRLPRPRPRPREIPRP  -0.00904
37. RRIRDRPPRLPRPRPRPMQHPRP  -0.00754
38. RRIRIRPPRLPRPRPRPRMEPRP  -0.00396
39. RRIRYRPPRLPRPRPRPKSWPRP  -0.00323
40. RRIRVRPPRLPRPRPRPFQEPRP  0.00442
41. RRIRYRPPRLPRPRPRPIHEPRP  0.00548
42. RRIRNRPPRLPRPRPRPHIIPRP  0.0166
43. RRIRFRPPRLPRPRPRPDHVPRP  0.0266
44. RRIRVRPPRLPRPRPRPQMWPRP  0.0478
45. RRIRFRPPRLPRPRPRPAERPRP  0.0603
46. RRIRQRPPRLPRPRPRPGPEPRP  0.0674
47. RRIRRRPPRLPRPRPRPQYAPRP  0.0794
48. RRIRFRPPRLPRPRPRPHEDPRP  0.0846
49. RRIRFRPPRLPRPRPRPRCRPRP  0.109
50. RRIRMRPPRLPRPRPRPACHPRP  0.151
51. RRIRPRPPRLPRPRPRPDGDPRP  0.152
52. RRIRPRPPRLPRPRPRPGRTPRP  0.153
53. RRIRCRPPRLPRPRPRPSARPRP  0.16
54. RRIRPRPPRLPRPRPRPAKSPRP  0.179
55. RRIRNRPPRLPRPRPRPKAHPRP  0.18
56. RRIRGRPPRLPRPRPRPENRPRP  0.19
57. RRIRGRPPRLPRPRPRPGHEPRP  0.202
58. RRIRWRPPRLPRPRPRPVQRPRP  0.257
59. RRIRQRPPRLPRPRPRPFPHPRP  0.259
60. RRIRPRPPRLPRPRPRPPMGPRP  0.325
61. RRIRTRPPRLPRPRPRPRKAPRP  0.326
62. RRIRARPPRLPRPRPRPHQIPRP  0.354
63. RRIRGRPPRLPRPRPRPRVNPRP  0.394
64. RRIRFRPPRLPRPRPRPRPFPRP  0.401
65. RRIRYRPPRLPRPRPRPPRAPRP  0.403
66. RRIRGRPPRLPRPRPRPNECPRP  0.421
67. RRIRARPPRLPRPRPRPNPDPRP  0.571
68. RRIRARPPRLPRPRPRPLRMPRP  0.655
69. RRIRGRPPRLPRPRPRPQRTPRP  0.853
70. RRIRMRPPRLPRPRPRPEKIPRP  0.856
71. RRIRKRPPRLPRPRPRPEPSPRP  0.956
72. RRIRKRPPRLPRPRPRPLGQPRP  0.991
73. RRIRGRPPRLPRPRPRPALLPRP  1.14
74. RRIRGRPPRLPRPRPRPDEAPRP  1.56
75. RRIRCRPPRLPRPRPRPNRMPRP  2.23
